The supplement of paper PMC5998384

Legend:
HeLa Kyoto [1] = assay: solubility in G1/S (NP-40 vs SDS abundance) (log2 ratio); higher = more soluble; conditions: cell cycle stage: G1/S
HeLa Kyoto [2] = assay: melting temperature (median over replicates), in situ; higher = more thermally stable
HeLa Kyoto [3] = assay: solubility change mitosis vs G1/S (difference of NP-40 vs SDS log2 ratios) (log2 ratio difference); higher = more soluble in mitosis
HeLa Kyoto [4] = assay: thermal stability score vs G1/S (z-score of summed log2 fold changes over temperatures); higher = more thermally stable than in G1/S
[5] = cell cycle stage: early G1 (4.5 h after nocodazole release)
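For melting temperature (median over replicates), in situ in this document: HeLa Kyoto cells synchronized by double thymidine or nocodazole block, proteins quantified by TMT10plex mass spectrometry, three independent biological replicates.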
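For solubility change mitosis vs G1/S (difference of NP-40 vs SDS log2 ratios) in this document: synchronized HeLa Kyoto cells (double thymidine block for G1/S, nocodazole release for mitosis), protein amounts in NP-40 versus SDS lysates quantified by mass spectrometry, three biological replicates.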
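For solubility in G1/S (NP-40 vs SDS abundance) in this document: HeLa Kyoto cells arrested at G1/S by double thymidine block, proteins quantified by TMT10plex mass spectrometry in mild NP-40 versus SDS extracts, three biological replicates.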
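For thermal stability score vs G1/S (z-score of summed log2 fold changes over temperatures) in this document: synchronized HeLa Kyoto cells, proteins quantified by TMT10plex mass spectrometry, three biological replicates, mitosis taken 0.5 h after nocodazole release, G1/S directly after double thymidine block.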

PELP1, sequence (chain, as listed by the source): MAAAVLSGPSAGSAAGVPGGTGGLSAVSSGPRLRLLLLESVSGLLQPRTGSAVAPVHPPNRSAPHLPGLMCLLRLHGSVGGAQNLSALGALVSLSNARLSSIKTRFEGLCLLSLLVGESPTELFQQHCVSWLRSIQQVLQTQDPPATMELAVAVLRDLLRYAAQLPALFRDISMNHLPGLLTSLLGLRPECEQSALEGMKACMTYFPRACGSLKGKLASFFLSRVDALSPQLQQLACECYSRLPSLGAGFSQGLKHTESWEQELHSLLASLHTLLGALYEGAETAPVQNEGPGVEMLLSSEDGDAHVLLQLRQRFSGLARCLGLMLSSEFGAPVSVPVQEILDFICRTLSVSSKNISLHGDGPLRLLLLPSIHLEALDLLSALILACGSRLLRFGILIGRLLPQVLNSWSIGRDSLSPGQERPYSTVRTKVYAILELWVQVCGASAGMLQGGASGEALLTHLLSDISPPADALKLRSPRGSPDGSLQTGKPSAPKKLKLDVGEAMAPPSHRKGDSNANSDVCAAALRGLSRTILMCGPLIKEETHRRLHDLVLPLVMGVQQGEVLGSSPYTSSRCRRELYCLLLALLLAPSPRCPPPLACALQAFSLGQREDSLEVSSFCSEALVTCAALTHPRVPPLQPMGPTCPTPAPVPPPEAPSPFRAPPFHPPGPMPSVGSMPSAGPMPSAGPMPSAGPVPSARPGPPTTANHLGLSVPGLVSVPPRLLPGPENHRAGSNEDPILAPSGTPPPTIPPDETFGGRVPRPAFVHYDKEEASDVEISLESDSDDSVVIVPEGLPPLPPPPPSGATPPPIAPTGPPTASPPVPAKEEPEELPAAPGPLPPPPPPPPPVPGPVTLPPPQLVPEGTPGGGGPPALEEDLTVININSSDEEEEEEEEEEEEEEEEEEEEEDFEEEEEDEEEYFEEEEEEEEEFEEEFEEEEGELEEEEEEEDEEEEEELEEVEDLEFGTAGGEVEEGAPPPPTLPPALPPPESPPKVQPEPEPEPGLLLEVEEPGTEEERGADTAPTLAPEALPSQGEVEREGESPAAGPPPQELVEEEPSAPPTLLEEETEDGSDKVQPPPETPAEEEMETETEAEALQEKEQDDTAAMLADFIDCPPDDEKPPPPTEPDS
PPIB, sequence (chain, as listed by the source): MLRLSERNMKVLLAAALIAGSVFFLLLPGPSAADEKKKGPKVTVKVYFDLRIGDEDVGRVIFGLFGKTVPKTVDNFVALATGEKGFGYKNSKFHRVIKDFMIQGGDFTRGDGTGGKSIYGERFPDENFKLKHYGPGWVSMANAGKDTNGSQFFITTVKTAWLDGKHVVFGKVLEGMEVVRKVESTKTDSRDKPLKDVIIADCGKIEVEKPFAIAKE

Row | Substance | solubility in G1/S (log2) (HeLa Kyoto [1]) | melting temperature (HeLa Kyoto [2]; cell cycle stage: G1/S) | melting temperature (HeLa Kyoto [2]; cell cycle stage: mitosis) | solubility change mitosis (log2) (HeLa Kyoto [3]) | thermal stability score (HeLa Kyoto [4]; [5]) | thermal stability score (HeLa Kyoto [4]; cell cycle stage: mitosis)
1 | MDSRLQEIRERQKLRRQLLAQQLGAESADSIGAVLNSKDEQREIAETRETCRASYDTSAPNAKRKYLDEGETDEDKMEEYKDELEMQQDEENLPYEEEIYKDSSTFLKGTQSLNPHNDYCQHFVDTGHRPQNFIRDVGLADRFEEYPKLRELIRLKDELIAKSNTPPMYLQADIEAFDIRELTPKFDVILLEPPLEEYYRETGITANEKCWTWDDIMKLEIDEIAAPRSFIFLWCGSGEGLDLGRVCLRKWGYRRCEDICWIKTNKNNPGKTKTLDPKAVFQRTKEHCLMGIKGTVKRSTDGDFIHANVDIDLIITEEPEIGNIEKPVEIFHIIEHFCLGRRRLHLFGRDSTIRPGWLTVGPTLTNSNYNAETYASYFSAPNSYLTGCTEEIERLRPKSPPPKSKSDRGGGAPRGGGRGGTSAGRGRERNRSNFRGERGGFRGGRGGAHRGGFPPR [METTL14] | 0.0131 | 52.3 °C | 53.4 °C | -0.118 | -0.705 | 0.141
2 | MKKFSRMPKSEGGSGGGAAGGGAGGAGAGAGCGSGGSSVGVRVFAVGRHQVTLEESLAEGGFSTVFLVRTHGGIRCALKRMYVNNMPDLNVCKREITIMKELSGHKNIVGYLDCAVNSISDNVWEVLILMEYCRAGQVVNQMNKKLQTGFTEPEVLQIFCDTCEAVARLHQCKTPIIHRDLKVENILLNDGGNYVLCDFGSATNKFLNPQKDGVNVVEEEIKKYTTLSYRAPEMINLYGGKPITTKADIWALGCLLYKLCFFTLPFGESQVAICDGNFTIPDNSRYSRNIHCLIRFMLEPDPEHRPDIFQVSYFAFKFAKKDCPVSNINNSSIPSALPEPMTASEAAARKSQIKARITDTIGPTETSIAPRQRPKANSATTATPSVLTIQSSATPVKVLAPGEFGNHRPKGALRPGNGPEILLGQGPPQQPPQQHRVLQQLQQGDWRLQQLHLQHRHPHQQQQQQQQQQQQQQQQQQQQQQQQQQQHHHHHHHHLLQDAYMQQYQHATQQQQMLQQQFLMHSVYQPQPSASQYPTMMPQYQQAFFQQQMLAQHQPSQQQASPEYLTSPQEFSPALVSYTSSLPAQVGTIMDSSYSANRSVADKEAIANFTNQKNISNPPDMSGWNPFGEDNFSKLTEEELLDREFDLLRSNRLEERASSDKNVDSLSAPHNHPPEDPFGSVPFISHSGSPEKKAEHSSINQENGTANPIKNGKTSPASKDQRTGKKTSVQGQVQKGNDESESDFESDPPSPKSSEEEEQDDEEVLQGEQGDFNDDDTEPENLGHRPLLMDSEDEEEEEKHSSDSDYEQAKAKYSDMSSVYRDRSGSGPTQDLNTILLTSAQLSSDVAVETPKQEFDVFGAVPFFAVRAQQPQQEKNEKNLPQHRFPAAGLEQEEFDVFTKAPFSKKVNVQECHAVGPEAHTIPGYPKSVDVFGSTPFQPFLTSTSKSESNEDLFGLVPFDEITGSQQQKVKQRSLQKLSSRQRRTKQDMSKSNGKRHHGTPTSTKKTLKPTYRTPERARRHKKVGRRDSQSSNEFLTISDSKENISVALTDGKDRGNVLQPEESLLDPFGAKPFHSPDLSWHPPHQGLSDIRADHNTVLPGRPRQNSLHGSFHSADVLKMDDFGAVPFTELVVQSITPHQSQQSQPVELDPFGAAPFPSKQ [BMP2K] | -0.292 | 50.5 °C | 51.1 °C | -0.0153 | 0.793 | 0.398
3 | MTSMTQSLREVIKAMTKARNFERVLGKITLVSAAPGKVICEMKVEEEHTNAIGTLHGGLTATLVDNISTMALLCTERGAPGVSVDMNITYMSPAKLGEDIVITAHVLKQGKTLAFTSVDLTNKATGKLIAQGRHTKHLGN [ACOT13] | 0.372 | 56.4 °C | 57.7 °C | -0.0848 | -1.62 | -1.82
4 | MFEEPEWAEAAPVAAGLGPVISRPPPAASSQNKGSKRRQLLATLRALEAASLSQHPPSLCISDSEEEEEERKKKCPKKASFASASAEVGKKGKKKCQKQGPPCSDSEEEVERKKKCHKQALVGSDSAEDEKRKRKCQKHAPINSAQHLDNVDQTGPKAWKGSTTNDPPKQSPGSTSPKPPHTLSRKQWRNRQKNKRRCKNKFQPPQVPDQAPAEAPTEKTEVSPVPRTDSHEARAGALRARMAQRLDGARFRYLNEQLYSGPSSAAQRLFQEDPEAFLLYHRGFQSQVKKWPLQPVDRIARDLRQRPASLVVADFGCGDCRLASSIRNPVHCFDLASLDPRVTVCDMAQVPLEDESVDVAVFCLSLMGTNIRDFLEEANRVLKPGGLLKVAEVSSRFEDVRTFLRAVTKLGFKIVSKDLTNSHFFLFDFQKTGPPLVGPKAQLSGLQLQPCLYKRR [RRP8] | -1.46 | 49.1 °C | 51.7 °C | 0.852 | 1.48 | 2.48
5 | MASSSTVPLGFHYETKYVVLSYLGLLSQEKLQEQHLSSPQGVQLDIASQSLDQEILLKVKTEIEEELKSLDKEISEAFTSTGFDRHTSPVFSPANPESSMEDCLAHLGEKVSQELKEPLHKALQMLLSQPVTYQAFRECTLETTVHASGWNKILVPLVLLRQMLLELTRRGQEPLSALLQFGVTYLEDYSAEYIIQQGGWGTVFSLESEEEEYPGITAEDSNDIYILPSDNSGQVSPPESPTVTTSWQSESLPVSLSASQSWHTESLPVSLGPESWQQIAMDPEEVKSLDSNGAGEKSENNSSNSDIVHVEKEEVPEGMEEAAVASVVLPARELQEALPEAPAPLLPHITATSLLGTREPDTEVITVEKSSPATSLFVELDEEEVKAATTEPTEVEEVVPALEPTETLLSEKEINAREESLVEELSPASEKKPVPPSEGKSRLSPAGEMKPMPLSEGKSILLFGGAAAVAILAVAIGVALALRKK [BCL2L13] | 0.337 | 53.9 °C | 54.1 °C | -0.255 | -2.28 | -2.76
6 | PELP1 | -1.2 | 55.2 °C | 53.8 °C | 0.451 | -1.93 | -5.97
7 | MSDFDEFERQLNENKQERDKENRHRKRSHSRSRSRDRKRRSRSRDRRNRDQRSASRDRRRRSKPLTRGAKEEHGGLIRSPRHEKKKKVRKYWDVPPPGFEHITPMQYKAMQAAGQIPATALLPTMTPDGLAVTPTPVPVVGSQMTRQARRLYVGNIPFGITEEAMMDFFNAQMRLGGLTQAPGNPVLAVQINQDKNFAFLEFRSVDETTQAMAFDGIIFQGQSLKIRRPHDYQPLPGMSENPSVYVPGVVSTVVPDSAHKLFIGGLPNYLNDDQVKELLTSFGPLKAFNLVKDSATGLSKGYAFCEYVDINVTDQAIAGLNGMQLGDKKLLVQRASVGAKNATLVSPPSTINQTPVTLQVPGLMSSQVQMGGHPTEVLCLMNMVLPEELLDDEEYEEIVEDVRDECSKYGLVKSIEIPRPVDGVEVPGCGKIFVEFTSVFDCQKAMQGLTGRKFANRVVVTKYCDPDSYHRRDFW [U2AF2] | -0.395 | 49.7 °C | 50.5 °C | 0.177 | 1.65 | 5.33
8 | MLGKGVVGGGGGTKAPKPSFVSYVRPEEIHTNEKEVTEKEVTLHLLPGEQLLCEASTVLKYVQEDSCQHGVYGRLVCTDFKIAFLGDDESALDNDETQFKNKVIGENDITLHCVDQIYGVFDEKKKTLFGQLKKYPEKLIIHCKDLRVFQFCLRYTKEEEVKRIVSGIIHHTQAPKLLKRLFLFSYATAAQNNTVTDPKNHTVMFDTLKDWCWELERTKGNMKYKAVSVNEGYKVCERLPAYFVVPTPLPEENVQRFQGHGIPIWCWSCHNGSALLKMSALPKEQDDGILQIQKSFLDGIYKTIHRPPYEIVKTEDLSSNFLSLQEIQTAYSKFKQLFLIDNSTEFWDTDIKWFSLLESSSWLDIIRRCLKKAIEITECMEAQNMNVLLLEENASDLCCLISSLVQLMMDPHCRTRIGFQSLIQKEWVMGGHCFLDRCNHLRQNDKEEVPVFLLFLDCVWQLVHQHPPAFEFTETYLTVLSDSLYIPIFSTFFFNSPHQKDTNMGREGQDTQSKPLNLLTVWDWSVQFEPKAQTLLKNPLYVEKPKLDKGQRKGMRFKHQRQLSLPLTQSKSSPKRGFFREETDHLIKNLLGKRISKLINSSDELQDNFREFYDSWHSKSTDYHGLLLPHIEGPEIKVWAQRYLRWIPEAQILGGGQVATLSKLLEMMEEVQSLQEKIDERHHSQQAPQAEAPCLLRNSARLSSLFPFALLQRHSSKPVLPTSGWKALGDEDDLAKREDEFVDLGDV [MTMR12] | -0.0977 | 56.1 °C | 56 °C | -0.11 | -0.744 | -0.447
9 | MAAMRKALPRRLVGLASLRAVSTSSMGTLPKRVKIVEVGPRDGLQNEKNIVSTPVKIKLIDMLSEAGLSVIETTSFVSPKWVPQMGDHTEVLKGIQKFPGINYPVLTPNLKGFEAAVAAGAKEVVIFGAASELFTKKNINCSIEESFQRFDAILKAAQSANISVRGYVSCALGCPYEGKISPAKVAEVTKKFYSMGCYEISLGDTIGVGTPGIMKDMLSAVMQEVPLAALAVHCHDTYGQALANTLMALQMGVSVVDSSVAGLGGCPYAQGASGNLATEDLVYMLEGLGIHTGVNLQKLLEAGNFICQALNRKTSSKVAQATCKL [HMGCL] | 0.536 | 54.1 °C | 53.9 °C | -0.047 | 0.275 | 0.372
10 | MEKTELIQKAKLAEQAERYDDMATCMKAVTEQGAELSNEERNLLSVAYKNVVGGRRSAWRVISSIEQKTDTSDKKLQLIKDYREKVESELRSICTTVLELLDKYLIANATNPESKVFYLKMKGDYFRYLAEVACGDDRKQTIDNSQGAYQEAFDISKKEMQPTHPIRLGLALNFSVFYYEILNNPELACTLAKTAFDEAIAELDTLNEDSYKDSTLIMQLLRDNLTLWTSDSAGEECDAAEGAEN [YWHAQ] | 0.435 | 51.4 °C | 52 °C | 0.372 | 0.526 | 2.69
11 | MPCGEDWLSHPLGIVQGFFAQNGVNPDWEKKVIEYFKEKLKENNAPKWVPSLNEVPLHYLKPNSFVKFRCMIQDMFDPEFYMGVYETVNQNTKAHVLHFGKYRDVAECGPQQELDLNSPRNTTLERQTFYCVPVPGESTWVKEAYVNANQARVSPSTSYTPSRHKRSYEDDDDMDLQPNKQKDQHAGARQAGSVGGLQWCGEPKRLETEASTGQQLNSLNLSSPFDLNFPLPGEKGPACLVKVYEDWDCFKVNDILELYGILSVDPVLSILNNDERDASALLDPMECTDTAEEQRVHSPPASLVPRIHVILAQKLQHINPLLPACLNKEESKTCKFVSSFMSELSPVRAELLGFLTHALLGDSLAAEYLILHLISTVYTRRDVLPLGKFTVNLSGCPRNSTFTEHLYRIIQHLVPASFRLQMTIENMNHLKFIPHKDYTANRLVSGLLQLPSNTSLVIDETLLEQGQLDTPGVHNVTALSNLITWQKVDYDFSYHQMEFPCNINVFITSEGRSLLPADCQIHLQPQLIPPNMEEYMNSLLSAVLPSVLNKFRIYLTLLRFLEYSISDEITKAVEDDFVEMRKNDPQSITADDLHQLLVVARCLSLSAGQTTLSRERWLRAKQLESLRRTRLQQQKCVNGNEL [MCMBP] | 0.324 | 49.2 °C | 50.1 °C | -0.11 | 0.0238 | 2.25
12 | PPIB | 0.0181 | 53.8 °C | 54.4 °C | 0.0983 | 4.65 | 4.71
